Measurements: PMC10932607
Like-named read-outs stand apart in the source and are kept apart here.

Experiments:
[1] = molecular target: SemiSWEET; assay: native MS
[2] = molecular target: SemiSWEET; assay: native MS; remark: listed apart in the source

Substance: SemiSWEET (natural protein)
- stoichiometry N [1]: 2
- stoichiometry N [2]: 2
